From article PMC13071878, “Yeast Display Technology Enables Rapid Discovery of Low-Nanomolar Macrocyclic Peptide Inhibitors of Human Angiotensin-Converting Enzyme 2” (Journal of Medicinal Chemistry, 2026)
Where “and” joins values, the source holds several entries; their conditions need not be identical. Equal values may be shown once. Read-outs that look alike come from different tables or passages of the source.

Assays:
hACE2 [1] = biological target: T1, hACE2 (Homo sapiens, UniProt Q9BYF1); design: method as in ref 3 (SI list; Bedding et al. 2024); conditions: mRNA display cyclic peptides; ref 3 (SI list; Bedding et al. 2024); cited from earlier work
T1 sequence (Q9BYF1 19-615): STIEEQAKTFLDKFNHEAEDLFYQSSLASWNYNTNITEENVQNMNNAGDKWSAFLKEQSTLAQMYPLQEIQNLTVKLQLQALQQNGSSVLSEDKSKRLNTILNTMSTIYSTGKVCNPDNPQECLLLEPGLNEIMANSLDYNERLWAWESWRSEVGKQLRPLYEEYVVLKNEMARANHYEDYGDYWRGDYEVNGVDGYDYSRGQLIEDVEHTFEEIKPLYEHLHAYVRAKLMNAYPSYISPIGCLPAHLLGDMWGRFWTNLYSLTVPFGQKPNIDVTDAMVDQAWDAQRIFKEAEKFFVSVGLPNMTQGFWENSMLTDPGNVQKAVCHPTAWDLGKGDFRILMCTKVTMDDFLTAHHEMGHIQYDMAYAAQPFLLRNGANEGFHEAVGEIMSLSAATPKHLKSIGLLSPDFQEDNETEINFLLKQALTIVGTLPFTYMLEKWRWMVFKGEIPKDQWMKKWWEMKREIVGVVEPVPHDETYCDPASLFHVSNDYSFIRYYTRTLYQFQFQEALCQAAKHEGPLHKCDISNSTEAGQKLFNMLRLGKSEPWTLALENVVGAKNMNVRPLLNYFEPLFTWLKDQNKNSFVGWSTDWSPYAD

hACE2 [2] = biological target: T1, hACE2; assay type: binding; conditions: yeast-displayed MP, serial dilutions of biotinylated hACE2
hACE2 [3] = biological target: T1, hACE2; design: method as in ref 4 (SI list; Huang et al. 2003); conditions: phage display DX peptides, ref 4 (SI list; Huang et al. 2003), cited from earlier work; for Ki: where not reported, calculated by Cheng-Prusoff, Km 23 μM
hACE2 [4] = biological target: T1, hACE2; experiment: biochemical
Experimental: The activity assay was performed by incubating 0.25 nM of hACE2 with 50 μM fluorogenic substrate Mca-Ala-Pro-Lys­(Dnp)–OH (MedChemExpress, Monmouth Junction, NJ, USA) and 3-fold MP dilutions (ranging from 0.03 nM to 100 μM). […] All reagents were diluted in 10 mM Tris–HCl, pH 7.4, 300 mM NaCl, 100 μM ZnCl2, 0.1% w/v BSA, and 0.1% v/v DMSO assay buffer. The measurements were performed on a Berthold TriStar LB 941 microplate reader (Berthold Technologies, Bad Wildbad, Germany) using flat-bottom 96-well half area Corning Costar plates (Corning, New York, USA). The enzymatic reactions were performed at 25 °C for 90 min, under shaking with a maximum excitation wavelength (λex) of 320 nm and maximum emission wavelength (λem) of 405 nm. The initial velocities were monitored as changes in fluorescence intensity. Half-maximum inhibitory concentration (IC50) values were determined using GraphPad Prism v8.2.1 software (GraphPad software Inc., San Diego, CA, USA). […] Fluorescence was recorded as described earlier (λex = 320 nm, λem = 405 nm) using a Berthold TriStar LB 941 microplate reader (Berthold Technologies, Bad Wildbad, Germany). Initial velocities (V 0) were plotted against substrate concentrations [S] and analyzed via nonlinear regression using a one-site specific binding model using GraphPad Prism v8.2.1 software (GraphPad software Inc., San Diego, CA, USA). […]

hACE2 [5] = biological target: T1, hACE2; design: method as in ref 2 (SI list; Harman et al. 2023); conditions: phage display bicyclic peptides; ref 2 (SI list; Harman et al. 2023); cited from earlier work
hACE2 [6] = biological target: T1, hACE2; design: method as in ref 2 (SI list; Harman et al. 2023); conditions: phage display bicyclic peptides, ref 2 (SI list; Harman et al. 2023), cited from earlier work; for Ki: where not reported, calculated by Cheng-Prusoff, Km 23 μM
hACE1 = biological target: T2, hACE1 (Homo sapiens, UniProt P12821); experiment: biochemical
T2 construct: purchased R&D Systems
T2 sequence (P12821 30-1306): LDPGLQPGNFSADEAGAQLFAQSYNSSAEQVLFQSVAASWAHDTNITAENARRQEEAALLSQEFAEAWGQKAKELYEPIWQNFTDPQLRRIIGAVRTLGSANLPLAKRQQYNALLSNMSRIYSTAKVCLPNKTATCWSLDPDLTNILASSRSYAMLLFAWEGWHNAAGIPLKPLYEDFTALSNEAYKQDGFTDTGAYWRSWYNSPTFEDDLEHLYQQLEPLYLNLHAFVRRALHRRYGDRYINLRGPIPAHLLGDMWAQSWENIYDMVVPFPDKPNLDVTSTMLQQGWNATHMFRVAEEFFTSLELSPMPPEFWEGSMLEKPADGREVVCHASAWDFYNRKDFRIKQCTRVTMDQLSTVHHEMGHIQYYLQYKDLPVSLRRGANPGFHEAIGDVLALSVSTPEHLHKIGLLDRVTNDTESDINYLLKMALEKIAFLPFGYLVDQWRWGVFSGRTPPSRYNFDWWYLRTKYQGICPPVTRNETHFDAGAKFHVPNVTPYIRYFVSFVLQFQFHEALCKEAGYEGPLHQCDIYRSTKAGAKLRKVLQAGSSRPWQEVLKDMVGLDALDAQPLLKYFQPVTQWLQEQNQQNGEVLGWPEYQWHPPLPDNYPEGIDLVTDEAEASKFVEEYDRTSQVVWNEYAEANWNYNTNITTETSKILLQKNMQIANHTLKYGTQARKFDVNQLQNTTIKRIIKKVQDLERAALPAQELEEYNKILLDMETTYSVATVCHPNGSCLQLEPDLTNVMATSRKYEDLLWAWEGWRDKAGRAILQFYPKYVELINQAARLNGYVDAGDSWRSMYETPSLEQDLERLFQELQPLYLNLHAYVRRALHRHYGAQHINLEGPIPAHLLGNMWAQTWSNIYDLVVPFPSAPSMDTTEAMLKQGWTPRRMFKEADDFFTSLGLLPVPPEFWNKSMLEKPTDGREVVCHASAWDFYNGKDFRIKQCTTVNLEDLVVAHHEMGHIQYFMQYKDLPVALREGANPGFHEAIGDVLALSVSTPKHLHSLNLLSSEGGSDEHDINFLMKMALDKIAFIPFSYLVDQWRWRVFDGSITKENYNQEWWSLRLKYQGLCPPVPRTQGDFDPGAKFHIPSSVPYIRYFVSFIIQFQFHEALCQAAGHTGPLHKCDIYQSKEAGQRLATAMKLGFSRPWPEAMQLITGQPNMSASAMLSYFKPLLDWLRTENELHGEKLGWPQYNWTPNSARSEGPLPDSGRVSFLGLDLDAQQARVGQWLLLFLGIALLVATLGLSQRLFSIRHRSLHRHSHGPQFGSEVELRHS
Experimental: The activity assay was performed by incubating 0.25 nM of hACE2 with 50 μM fluorogenic substrate Mca-Ala-Pro-Lys­(Dnp)–OH (MedChemExpress, Monmouth Junction, NJ, USA) and 3-fold MP dilutions (ranging from 0.03 nM to 100 μM). […] All reagents were diluted in 10 mM Tris–HCl, pH 7.4, 300 mM NaCl, 100 μM ZnCl2, 0.1% w/v BSA, and 0.1% v/v DMSO assay buffer. The measurements were performed on a Berthold TriStar LB 941 microplate reader (Berthold Technologies, Bad Wildbad, Germany) using flat-bottom 96-well half area Corning Costar plates (Corning, New York, USA). The enzymatic reactions were performed at 25 °C for 90 min, under shaking with a maximum excitation wavelength (λex) of 320 nm and maximum emission wavelength (λem) of 405 nm. The initial velocities were monitored as changes in fluorescence intensity. Half-maximum inhibitory concentration (IC50) values were determined using GraphPad Prism v8.2.1 software (GraphPad software Inc., San Diego, CA, USA). […] Reactions were initiated by adding hACE2 (final concentration 0.25 nM) to the fluorogenic substrate in assay buffer at 25 °C. Fluorescence was recorded as described earlier (λex = 320 nm, λem = 405 nm) using a Berthold TriStar LB 941 microplate reader (Berthold Technologies, Bad Wildbad, Germany). Initial velocities (V 0) were plotted against substrate concentrations [S] and analyzed via nonlinear regression using a one-site specific binding model using GraphPad Prism v8.2.1 software (GraphPad software Inc., San Diego, CA, USA). […] All reagents were diluted in 10 mM Tris-HCl, pH 7.4, 300 mM NaCl, 100 μM ZnCl2, 0.1% w/v BSA, and 0.1% v/v DMSO buffer. Measurements and data analysis were performed as mentioned above.

hACE2 [7] = biological target: T1, hACE2; design: method as in ref 3 (SI list; Bedding et al. 2024); conditions: mRNA display cyclic peptides, ref 3 (SI list; Bedding et al. 2024), cited from earlier work

Q: Which Kd (hACE2 [1]) does the source give for y*TYQYRDRFFRPC [peptide22] here?
A: Its Kd is 14.8 nM.

Q: With ACEPLGANLFLCSG [GR1.8] as the compound, how does the “binding to hACE2 in yeast surface titration (in words)” value (hACE2 [2]) read?
A: Its value is “completely abolished”.

Q: With AGQKECKFGYPHCLPWGT [DX530] as the compound, how does the IC50 (hACE2 [3]) read?
A: Its IC50 is 30000 nM.

Q: For Y*VLSSPRGALRALRC [peptide3], which Kd (hACE2 [1]) is on record?
A: The Kd was 290 nM.

Q: Which Kd (hACE2 [1]) does the source give for y*SYQYRGRFHRQC [peptide19] here?
A: Its Kd is 78 nM.

Q: For y*IRQFTSRVPLHC [peptide21], which Kd (hACE2 [1]) is on record?
A: Its Kd is 3.6 nM.

Q: For y*ARPLRHRPWYVSWC [peptide6], which Kd (hACE2 [1]) is on record?
A: The Kd was 3.3 nM.

Q: With `CC(C)C[C@@H]1NC(=O)[C@H](Cc2ccccc2)NC(=O)[C@@H](NC(=O)[C@H](C)N)CSSC[C@@H]2NC(=O)[C@H](CCCCN)NC(=O)[C@H](C(C)C)NC(=O)[C@H](CC(=O)O)NC(=O)[C@H](CCCNC(=N)N)NC(=O)[C@H](Cc3c[nH]cn3)NC(=O)[C@H](CSSC[C@@H](C(=O)N[C@@H](CO)C(=O)NCC(N)=O)NC(=O)[C@H](Cc3c[nH]c4ccccc34)NC(=O)[C@H](CC(C)C)NC(=O)[C@H](Cc3c[nH]c4ccccc34)NC2=O)NC(=O)[C@H](CCCNC(=N)N)NC1=O` [GR3.1.3] as the compound, how does the Ki (hACE2 [4]) read?
A: The Ki was 1040 nM.

Q: Which results are given for ACGRQFCHTLMPRHLCA [BCY15292]?
A: Kd (hACE2 [5]): 1.2 nM; IC50 (hACE2 [6]): 2.6 nM; Ki (hACE2 [6]): 1.2 nM

Q: With Y*VKRNVYEGYKPC [peptide15] as the compound, how does the Kd (hACE2 [1]) read?
A: Its Kd is 7.3 nM.

Q: Which Kd (hACE2 [5]) does the source give for ACVRSHCSSLLPRIHCA [BCY15291] here?
A: The Kd was 0.4 nM and 0.44 nM.

Q: And the IC50 (hACE2 [6])?
A: The IC50 was 2 nM.

Q: What about the Ki (hACE2 [6]) of the same compound?
A: Its Ki is 0.9 nM.

Q: Which results are given for GSRGFCRDSSCSFPAP [DX525]?
A: IC50 (hACE2 [3]): 1000 nM; Ki (hACE2 [3]): 1700 nM

Q: Which Kd (hACE2 [1]) does the source give for y*VQRPIRNVRLIRC [peptide24] here?
A: Its Kd is 430 nM.

Q: For ACTRPWCHSLLPRATCA [BCY15293], which Kd (hACE2 [5]) is on record?
A: The Kd was 1.6 nM.

Q: And the IC50 (hACE2 [6])?
A: Its IC50 is 4.9 nM.

Q: And the Ki (hACE2 [6])?
A: Its Ki is 2.2 nM.

Q: What does the source list for ACLRSYNLCPRINCA [BCY15294]?
A: Kd (hACE2 [5]): 850 nM; IC50 (hACE2 [6]): 2400 nM; Ki (hACE2 [6]): 1100 nM

Q: Which IC50 (hACE2 [3]) does the source give for AGWEVCHWAPMMCKHGGT [DX529] here?
A: The IC50 was 400 nM.

Q: And the Ki (hACE2 [3])?
A: Its Ki is 380 nM.

Q: For `CC(=O)NCC(=O)N[C@@H](CC(=O)O)C(=O)N[C@@H](Cc1ccc(O)cc1)C(=O)N[C@@H](CO)C(=O)N[C@@H](Cc1cnc[nH]1)C(=O)N[C@H]1CSSC[C@@H](C(=O)N[C@H](C(=O)N[C@@H](Cc2ccc(O)cc2)C(=O)N2CCC[C@H]2C(=O)N[C@@H](CC(=O)O)C(=O)N2CCC[C@H]2C(=O)N[C@@H](CCC(=O)O)C(=O)NCC(=O)NCC(=O)NCC(N)=O)[C@@H](C)O)NC(=O)[C@H](CCCCN)NC(=O)[C@H](Cc2c[nH]c3ccccc23)NC(=O)[C@H](Cc2c[nH]c3ccccc23)NC(=O)[C@@H]2CCCN2C(=O)[C@H](Cc2ccc(O)cc2)NC(=O)[C@H](Cc2ccc(O)cc2)NC(=O)[C@H](CCCNC(=N)N)NC(=O)[C@H](CC(C)C)NC(=O)[C@@H]2CCCN2C(=O)[C@H](CO)NC1=O` [DX600], which IC50 (hACE1) is on record?
A: The IC50 was greater than 100000 nM.

Q: Which results are given for ACHRDFPRCTWETQWCA [BCY15297]?
A: Kd (hACE2 [5]): 11000 nM; IC50 (hACE2 [6]): 12000 nM; Ki (hACE2 [6]): 5200 nM

Q: What does the source list for y*RLHRSPWAHFGFAC [peptide20]?
A: IC50 (hACE2 [7]): 1980 nM; Ki (hACE2 [7]; where not reported, calculated by Cheng-Prusoff, Km 23 μM): 370 nM; Kd (hACE2 [1]): 228 nM

Q: For y*LSVNRVFAYRIIYKC [peptide23], which Kd (hACE2 [1]) is on record?
A: The Kd was 9.1 nM.

Q: For Y*FQRSVRLPYLRC [peptide2], which Kd (hACE2 [1]) is on record?
A: The Kd was 0.04 nM.

Q: With ACEPLGYALFLCSG [GR1.9] as the compound, how does the “binding to hACE2 in yeast surface titration (in words)” value (hACE2 [2]) read?
A: The value was “significantly attenuated”.
